Experimental data from US20110257373A1 (published 2011).
Residue numbers refer to the chain shown, from its start.

B1: LIP1-25 (other)
VH: EVQLLESGGGLVQPGGSLRLSCAASGFTFPDADMVWVRQAPGKGLEWVSSISDHGFNTYYADSVKGRFTISRDNSKNTLYLQMNSLRAEDTAVYYCAKSPLATFDYWGQGTLVTVSS
B2: 1-26 (other)
VH dAb: EVQLLESGGGLVQPGGSLRLSCAASGFTFSHYTMSWVRQAPGKGLEWVSSISSTGFKTYYADSVKGRFTISRDNSKNTLYLQMNSLRAEDTAVYYCAKWNPHRSTYFDYWGQGTLVTVSS
notes: human VH domain antibody, tested as phage particles; also called LIP1-26; LIP1-26 phage
B3: LIP1-28 (other)
VH: EVQLLESGGGLVQPGGSLRLSCAASGFTFVATPMHWVRQAPGKGLEWVSAISGSGGSTYYADSVKGRFTISRDNSKNTLYLQMNSLRAEDTAVYYCAKGWDPSLERFDYWGQGTLVTVSS
B4: LIP1-27 (other)
VH: EVQLLESGGGLVQPGGSLRLSCAASGFTFEQTDMHWARQAPGKGPEWVSSISPLGAFTYYADSVKGRFTISRDNSKNTLYLQMNSLRAEDTAVYYCAKSPLVRNNGQFDYWGQGTLVTVSS
B5: DC-SIGN peptide (9xHIS tag, linker and the C-terminal end of DC-SIGN) (peptide)
peptide: HHHHHHHHHSGSGKKSAASCSRDEEQFLSPAPATPNPPPA
notes: also called HIS tagged DC-SIGN peptide
B6: LIP1-29 (other)
VH: EVQLLESGGGLVQPGGSLRLSCAASGFTFDRRAMGWVRQAPGKGLEWVSSIESDGTRTYYADSVKGRFTISRDNSKNTLYLQMNSLRAEDTAVYYCAKHPGSSYVFDYWGQGTLVTVSS
notes: all other claims print 34
B7: 1-15 (other)
VK dAb: DIQMTQSPSSLSASVGDRVTITCRASRAIGTYLAWYQQKPGKAPKLLILWGSVLQSGVPSRFSGSGSGTDFTLTISSLQPEDFATYYCAQLAQRPSTFGQGTKVEIKR
notes: human VK domain antibody, tested as phage particles; also called LIP1-15; LIP1-15 phage
B8: LIP1-30 (other)
VH: EVQLLESGGGLVQPGGSLRLSCAASGFTFSGYSMAWVRQAPGKGLEWVSQIGPLGVKTYYADSVKGRFTISRDNSKNTLYLQMNSLRAEDTAVYYCAKLTSDAHDFDYWGQGTLVTVSS
notes: all other claims print 29
B9: 1-13 (other)
VK dAb: DIQMTQSPSSLSASVGDRVTITCRASQGIWQELKWYQQKPGKAPRLLIYRGSSLQSGVPSRFSGSGSGTDFTLTISSLQPEDFATYYCQQSFYPPYTFGQGTKVEIKR
notes: human VK domain antibody, tested as phage particles; also called LIP1-13; LIP1-13 phage
B10: 1-23 (other)
VK dAb: B9 VK dAb with G28D, Q31R, K34R, R45K, G51A, S53N, F62L, S91T
notes: human VK domain antibody, tested as phage particles; also called LIP1-23; LIP1-23 phage
B11: LIP1-33 (other)
VH: EVQLLESGGGLVQPGGSLRLSCAASGFTFPSGTMGWVRQAPGKGLEWVSYIDPSGFMTYYADSVKGRFTISRDNSKNTLYLQMNSLRAEDTAVYYCAKSIVPRSGTFDYWGQGTLVTVSS
notes: Human VH domain antibody (dAb); also called LIP1-33 phage
B12: 1-12 (other)
VK dAb: DIQMTQSPSSLSASVGDRVTITCRASRPIGTNLYWYQQKPGKAPKLLIVGGSFLQSGVPSRFSGSGSGTDFTLTISSLQPEDFATYYCGQRARYPGTFGQGTKVEIKR
notes: human VK domain antibody, tested as phage particles; also called LIP1-12; LIP1-12 phage

What was measured:
[1] = biological target: T1, human DC-SIGN (human, UniProt Q9NNX6 62-404, limits assumed); test: phage ELISA
T1 construct: Coated on ELISA wells; also called CD209; DC-SIGN protein
T1 sequence: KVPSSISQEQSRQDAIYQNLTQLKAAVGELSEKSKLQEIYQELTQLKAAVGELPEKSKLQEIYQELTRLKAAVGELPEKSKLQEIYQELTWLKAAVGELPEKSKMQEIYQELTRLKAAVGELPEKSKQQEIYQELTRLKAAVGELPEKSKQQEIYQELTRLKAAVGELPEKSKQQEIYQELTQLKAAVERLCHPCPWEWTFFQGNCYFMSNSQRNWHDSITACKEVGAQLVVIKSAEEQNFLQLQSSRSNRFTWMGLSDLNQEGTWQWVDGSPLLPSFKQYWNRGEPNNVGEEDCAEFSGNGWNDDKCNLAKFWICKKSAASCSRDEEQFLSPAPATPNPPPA

[2] = biological target: T1, human DC-SIGN; test: phage ELISA: DC-SIGN coated on the wells, serial dilutions of phage particles, detection with anti-M13 antibody-HRP and TMB, OD 450
Protocol: (§1) Phage particles from individual LIP1 clones were prepared, and serial dilutions of phage particles were tested in ELISA. The ELISA wells were coated overnight at 4° C. with DC SIGN (1-10 μg/ml in PBS or 0.1 M NaHCO₃ buffer, pH 9.6). After blocking the wells with PBS containing 2% skimmed-milk powder (PBSM), phage was incubated in PBSM for 1 hr. After washing with PBS, bound phage were detected using a conjugate of horseradish peroxidase with an anti-M13 monoclonal antibody (Amersham) using 3,3′,5,5′-tetramethylbenzidine as substrate.
as §1, with “For” for “Phage particles from individual LIP1 clones were prepared, and serial dilutions of”, “ELISA, the” for “particles were tested in ELISA. The”, “SIGN or DC SIGNR (R&D Cat nr 162-D2) at” for “SIGN”

[3] = biological target: B11; test: competition phage ELISA; HIS tagged peptide in solution as competitor (data not shown)
[4] = biological target: B5; test: phage ELISA: DC-SIGN peptide coated on the wells, serial dilutions of LIP1-33 phage, detection with anti-M13 antibody-HRP and TMB, OD450
Protocol: as §1, with “LIP1-33” for “individual LIP1 clones”, “DC SIGNR, neutravidin, DC” for “DC”, “SIGN or DC SIGN peptide” for “SIGN”, “substrate. HEL4 and VKdummy are non-binding negative controls.” for “substrate.”

[5] = biological target: T2, DC-SIGNR (Homo sapiens (Human), UniProt Q9H2X3 78-399, limits assumed); test: phage ELISA: DC-SIGNR coated on the wells, serial dilutions of LIP1-33 phage, detection with anti-M13 antibody-HRP and TMB, OD450
T2 construct: Bought (R&D Cat nr 162-D2)
T2 sequence: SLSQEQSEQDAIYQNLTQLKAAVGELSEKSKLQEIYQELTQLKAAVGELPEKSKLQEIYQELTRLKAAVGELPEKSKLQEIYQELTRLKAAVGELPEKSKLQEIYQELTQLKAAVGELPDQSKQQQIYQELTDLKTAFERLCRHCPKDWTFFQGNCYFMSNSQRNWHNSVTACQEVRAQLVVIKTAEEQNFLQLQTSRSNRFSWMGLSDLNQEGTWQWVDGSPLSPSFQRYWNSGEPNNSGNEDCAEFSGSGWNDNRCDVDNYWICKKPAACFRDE
Protocol: as §1, with “LIP1-33” for “individual LIP1 clones”, “DC SIGNR, neutravidin, DC” for “DC”, “SIGN or DC SIGN peptide” for “SIGN”, “substrate. HEL4 and VKdummy are non-binding negative controls.” for “substrate.”
as §1, with “For” for “Phage particles from individual LIP1 clones were prepared, and serial dilutions of”, “ELISA, the” for “particles were tested in ELISA. The”, “SIGN or DC SIGNR (R&D Cat nr 162-D2) at” for “SIGN”

[6] = biological target: T1, human DC-SIGN; test: phage ELISA: DC-SIGN coated on the wells, serial dilutions of LIP1-33 phage, detection with anti-M13 antibody-HRP and TMB, OD450
Protocol: as §1, with “LIP1-33” for “individual LIP1 clones”, “DC SIGNR, neutravidin, DC” for “DC”, “SIGN or DC SIGN peptide” for “SIGN”, “substrate. HEL4 and VKdummy are non-binding negative controls.” for “substrate.”
as §1, with “For” for “Phage particles from individual LIP1 clones were prepared, and serial dilutions of”, “ELISA, the” for “particles were tested in ELISA. The”, “SIGN or DC SIGNR (R&D Cat nr 162-D2) at” for “SIGN”

Binder	binding result [1]	binding result [2]	further results
B1	binds	–	–
B2	–	binds	–
B3	binds	–	–
B4	binds	–	–
B5	–	–	binding result [3]: binds
B6	–	binds	–
B7	–	binds	–
B8	binds	–	–
B9	–	binds	–
B10	–	binds	–
B11	–	–	binding result [4]: binds; binding result [5]: no binding; binding result [6]: binds
B12	–	binds	–
